According to patent US20190218296A1 (APEXIGEN, published 2019):
Residue numbers refer to the chain shown, from its start.

B1: h9A9-HZD1 (antibody, V domains shown)
VH: EVQLVESGGGLVQPGGSLRLSCAASGIDLSGYWMSWVRQAPGKGLEWVGIVDNDGSAYYASWVNGRFTISRDNSKNTLYLQMNSLRAEDTAVYYCARQSGDWTFDLWGQGTLVTVSS
VL: DIQMTQSPSTLSASVGDRVTITCQASQSIGRWLSWYQQKPGKAPKLLIYQASKLASGVPSRFSGSGSGTEFTLTISSLQPDDFATYYCQNNYDIIAYGNAFGGGTKVEIK
notes: also called humanized 9A9 HZD1
B2: h9A9-HZD2 (antibody, V domains shown)
VH: B1 VH with I27F, L29V
VL: B1 VL
notes: also called humanized 9A9 HZD2
B3: chimeric anti-PD-L1 antibody 27H2 (antibody, human IgG1, V domains shown)
VH: QSLEESGGDLVKPGASLTLTCTASGFSFSSGDYMCWVRQAPGKGLEGIACIYGGSSGSTYYANWAKGRFTISKTSSTTVTLQMTSLAAADTATYFCARDFRDVGYGYASFRLWGPGILVTVSS
VL: DIVMTQTPASVSEPVGGTVTIKCQASQSISSWLSWYQQKPGQPPKLLIYGASNLESGVSSRFKGSGSGTEYTLTISDLECADAATYYCQSNYGSSSSSLNAFGGGTEVVVK
B4: chimeric anti-PD-L1 antibody 23D12 (antibody, human IgG1, V domains shown)
VH: QSVEESGGRLVTPGTPLTLTCTVSGFSLSNYVMGWVRQAPGKGLEYIGIISNSDNTYYATWATGRFTISKTSTTVDLKMTSLTTEDTATYFCARVDTYYNDFNLWGPGTLVTVSS
VL: QVLTQTPSSVEAAVGGTVTIKCQASEDIERYLAWYQQKPGQPPKQLIYDASKLASGVSSRFKGSGSGTEFTLTISGVQCDDAATYYCQHGYIYSSGNPFGGGTEVVVK
B5: h51D5_HZD1 (antibody, V domains shown)
VH: EVQLVESGGGLVQPGGSLRLSCAASGFSLSSYWMSWVRRAPGKGLEWVGYINGGSGNPYYASWAKGRFTISRDNSKNTLYLQMNSLRAEDTAVYYCARGGESDDYVYGRYGLDPWGQGTLVTVSS
VL: DIQMTQSPSTLSASVGDRVTITCQASQSISSWLSWYQQKPGKAPKLLIYDASKLASGVPSRFSGSGSGTEFTLTISSLQPDDFATYYCQQDYSSYNVDNTFGGGTKVEIK
notes: also called humanized 51D5 HZD1
B6: h51D5_HZD2 (antibody, V domains shown)
VH: B5 VH with R39Q
VL: B5 VL
notes: also called humanized 51D5 HZD2
B7: h15E9_HZD1 (antibody, V domains shown)
VH: EVQLVESGGGLVQPGGSLRLSCAASGFDISNYWMSWVRQAPGKGLEWVGIISTGGNTWYASWVKGRFTISRDNSKNTLYLQMNSLRAEDTAVYYCARVVIYGGTTSSFNLWGQGTLVTVSS
VL: DIQMTQSPSSLSASVGDRVTITCQSSQNVYNKIRLSWYQQKPGKAPKELIYAASSLASGVPSRFSGSGSGTEFTLTISSLQPEDFATYYCQGGYSGPIYAFGGGTKVEIK
notes: also called humanized 15E9 HZD1
B8: h15E9_HZD2 (antibody, V domains shown)
VH: B7 VH
VL: B7 VL with E48R
notes: also called humanized 15E9 HZD2
B9: chimeric anti-PD-L1 antibody 43G2 (antibody, human IgG1, V domains shown)
VH: QSVEESGGRLVTPGTPLTLTCTVSGFSLSSYAMGWVRQAPGEGLEYIGFIDTHGSAYYATWAKGRFTISRTSTTVDLKITSPTTEDTATYFCARNVWTNAGYFNLWGPGTLVTVSS
VL: DVVMTQTPSSVSAAVGGTVTIKCQASQNIYTNLAWYQQKPGQPPKLLIYSASTLASGVPSRFKGSGSGTQFTLTISDLECADAATYYCQTYGALIINGGAFGGGTEVVVK

Key:
recombinant human PD-L1 [1] = target: T1, recombinant human PD-L1 (human, UniProt Q9NZQ7 19-238, limits assumed); experiment: ELISA on human PD-L1, OD 650 nm
T1 construct: also called PD-L1 protein

human PD-L1 on cells [2] = target: T2, human PD-L1 on cells (human, UniProt Q9NZQ7 19-290); experiment: flow cytometry on CD4 T cells activated with anti-CD3; MFI; column head prints only EC50, unit taken from the axis Antibody Concentration (nM)
T2 construct: whole, on cells; also called HEK-PD-L1 cells; PD-L1-expressing HEK 293 cells

[3] = target: T3, recombinant cynomolgus monkey PD-L1 (cynomolgus monkey, UniProt G7PSE7 19-238); experiment: direct ELISA on plate-coated recombinant cynomolgus monkey PD-L1; anti-human Fc-HRP, TMB, OD 650 nm
T3 construct: also called cynomolgus macaque PD-L1
Description: (§1) To assess specificity of the selected clones, a direct ELISA for human and cynomolgus monkey PD-L1 was performed. ELISA plates were coated with recombinant human or cynomolgus monkey PD-L1. […] Serial dilutions of chimeric anti-PD-L1 antibodies were added, and a secondary HRP-conjugated, anti-human Fc-specific antibody was added. After washing, TMB substrate was added and plates were read at OD 650 nm.

[4] = target: T4, human PD-L1-his (Sino Biologics) (human, UniProt Q9NZQ7 19-238); experiment: competition ELISA: human PD-L1-his coated at 1 µg/ml, antibody dilutions, then human PD-1-mouse-Fc at 1 µg/ml, anti-mouse IgG-HRP, OD 650 nm
T4 construct: Bought from Sino Biologics; not shown: his tag
Description: Plates were coated with 100 μl of 1 μg/ml human PD-L1-his (Sino Biologics, Beijing, China) in carbonate-bicarbonate buffer overnight. After washing, plates were blocked with PBS 0.05% Tween-20 for 1 hour, and serial dilutions of anti-PD-L1 human chimeric antibody or IgG1 isotype control antibody was added. […] After washing, goat anti-mouse IgG (H+L)-HRP antibody (Jackson ImmunoResearch West Grove, Pa.) and plates were further incubated for 1 hour. After washing, TMB substrate (SurModics, Eden Prairie, Minn.) was added. The reaction was stopped using stop solution (SurModics) and plates were read at OD=650 nanometer.

recombinant human PD-L1 [5] = target: T1, recombinant human PD-L1; experiment: direct ELISA on plate-coated recombinant human PD-L1; anti-human Fc-HRP, TMB, OD 650 nm
Description: as §1

human PD-L1 on cells [6] = target: T2, human PD-L1 on cells; experiment: flow cytometry on monocyte-derived dendritic cells; PE anti-human Fc, MFI
Description: The chimeric PD-L1 antibodies were further assessed for their ability to bind to human myeloid-derived dendritic cells. CD14 monocytes were isolated from PBMC using directly conjugated magnetic beads (Miltenyi) and cultured for 7 days in the presence of GM-CSF (100 ng/ml) and IL-4 (50 ng/ml) (Peprotech) to generate myeloid dendritic cells (mDC). mDC were added to 96-well plates (100,000 cells/well) and serial dilution of anti-PD-L1 antibodies or IgG1 isotype control antibody was added in duplicates and plates were incubated for 30 min on ice. After washing, a PE-conjugated donkey anti-human Fc specific antibody (Jackson Immunoresearch, 1:200 dilution) was added and plates were further incubated for 15 minutes on ice. After washing, cells were analyzed using a MACS quant flow cytometer.

T2 sequence (Q9NZQ7 19-290): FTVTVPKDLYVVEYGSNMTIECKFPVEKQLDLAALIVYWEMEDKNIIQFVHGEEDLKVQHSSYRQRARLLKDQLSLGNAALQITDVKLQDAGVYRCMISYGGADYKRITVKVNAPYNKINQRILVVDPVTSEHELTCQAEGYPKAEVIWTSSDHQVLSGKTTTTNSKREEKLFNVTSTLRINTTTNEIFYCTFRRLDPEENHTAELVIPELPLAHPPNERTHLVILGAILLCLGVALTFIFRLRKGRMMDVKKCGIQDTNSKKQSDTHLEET
T3 sequence (G7PSE7 entry or part of it limits assumed): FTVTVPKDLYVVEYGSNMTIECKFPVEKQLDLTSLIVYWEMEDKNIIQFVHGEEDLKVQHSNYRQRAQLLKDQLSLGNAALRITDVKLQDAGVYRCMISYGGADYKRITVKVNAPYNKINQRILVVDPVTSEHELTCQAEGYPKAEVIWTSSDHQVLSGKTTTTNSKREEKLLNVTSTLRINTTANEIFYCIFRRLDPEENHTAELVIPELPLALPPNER
T1 sequence (Q9NZQ7 19-238 limits assumed): as the sequence (G7PSE7 entry or part of it limits assumed) above, with T33A, S34A, N62S, Q68R, R82Q, L173F, A185T, I192T, L215H counted along it
T4 sequence (Q9NZQ7 19-238 limits assumed): as the sequence (G7PSE7 entry or part of it limits assumed) above, with T33A, S34A, N62S, Q68R, R82Q, L173F, A185T, I192T, L215H counted along it

Binder | EC50 (recombinant human PD-L1 [1]) [µg/mL] | EC50 (human PD-L1 on cells [2]) [nM] | other results
B1 | 0.0159 | – | –
B2 | 0.0126 | – | –
B3 | – | 0.75 | binding result [3]: no binding (tested: 1000 ng/ml); IC50 (read off the curve) [4]: ~0.02 µg/mL
B4 | – | 1.3 | EC50 (read off the curve) [3]: ~0.006 µg/mL; EC50 (read off the curve) (recombinant human PD-L1 [5]): ~0.007 µg/mL; EC50 (human PD-L1 on cells [6]): 1.7 nM
B5 | 0.0156 | – | –
B6 | 0.0169 | – | –
B7 | 0.267 | – | –
B8 | 1.62 | – | –
B9 | – | 7.7 | EC50 (read off the curve) [3]: ~0.005 µg/mL; EC50 (read off the curve) (recombinant human PD-L1 [5]): ~0.006 µg/mL; EC50 (human PD-L1 on cells [6]): 1.6 nM
